We go through one molecule from PMC2777681.

The target of test [1] is full-length purified recombinant EWS-FLI1. The test can be described thus: co-IP.
For test [2] the target is unchanged. Nature of the test: SPR.

On to PPPLDAVIEA [E9R peptide, Q08211 823-832], for which the percent of the GST-RHA(647-1075)/EWS-FLI1 association left with 0.1 μM E9R in test [1] worked out at 50%. Further, in test [2], the response units at 32 μM E9R worked out at 13 R.U, the response units at 32 μM E9R with 10 μM YK-4-279 was 5 R.U, the response units at 64 μM E9R turned out to be 17 R.U and the response units at 64 μM E9R with 10 μM YK-4-279 came to 7 R.U.
